Data as given in the supplement of paper PMC12455559.
± gives the standard deviation of the averaged measurements.

Experiments:
[1] = melting temperature (DSF); higher = more thermostable
In short: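 After expression in E. coli C41(DE3), the candidate enzymes were bound to nickel beads and released with SUMO protease. Their melting temperature was found by differential scanning fluorimetry with Sypro Orange on a Bio-Rad CFX96. Each sealed PCR plate well held 45 μL enzyme (0 to 0.3 mg/mL) plus 5 μL 5X dye, and fluorescence was read for 250 cycles from 25 °C at 0.3 °C per cycle (ramp 0.3 °C/s).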

[2] = purified protein yield per well (BCA); higher = higher soluble expression
In short: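 The measured quantity is purified protein yield per well, determined with the Pierce Rapid Gold BCA kit. Anything below 25 ug (0.1 mg/mL) lies under the detection threshold. Enzymes were expressed in E. coli C41(DE3) in 2 mL autoinduction cultures with 100 µg/mL kanamycin at 37 °C for 2 h, then 18 °C for 40 h, and purified on an OT-2 robot using Ni-charged magnetic beads and SUMO protease release.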

[3] = PET hydrolysis, aromatic products released after 48 h (umol product/mg enzyme); higher = more PET depolymerization activity
In short: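 Candidate enzymes, made tagless by SUMO cleavage and purified on nickel beads, were added at 5 μg (50 μL) to 3.5 mg of either amorphous PET film or crystalline PET powder in 450 μL buffer. The sealed plates stood unshaken for 48 h at 40 or 60 °C. Activity on PET is the aromatic product found in the supernatant per mg enzyme, read at 260 and 280 nm against buffer blanks.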

[4] = substrate: cryPow, 40 °C, pH 4.5
[5] = substrate: cryPow, 40 °C, pH 5.5
[6] = substrate: cryPow, 40 °C, pH 6.5
[7] = substrate: cryPow, 40 °C, pH 7.5
[8] = substrate: cryPow, 60 °C, pH 4.5
[9] = substrate: cryPow, 60 °C, pH 5.5
[10] = substrate: cryPow, 60 °C, pH 6.5
[11] = substrate: cryPow, 60 °C, pH 7.5
[12] = substrate: aFilm, 40 °C, pH 4.5
[13] = substrate: aFilm, 40 °C, pH 5.5
[14] = substrate: aFilm, 40 °C, pH 6.5
[15] = substrate: aFilm, 40 °C, pH 7.5
[16] = substrate: aFilm, 60 °C, pH 4.5
[17] = substrate: aFilm, 60 °C, pH 5.5
[18] = substrate: aFilm, 60 °C, pH 6.5
[19] = substrate: aFilm, 60 °C, pH 7.5

| Sequence | melting temperature [1] [C] | purified protein yield per well [2] [µg] | PET hydrolysis [3, 4] | PET hydrolysis [3, 5] | PET hydrolysis [3, 6] | PET hydrolysis [3, 7] | PET hydrolysis [3, 8] | PET hydrolysis [3, 9] | PET hydrolysis [3, 10] | PET hydrolysis [3, 11] | PET hydrolysis [3, 12] | PET hydrolysis [3, 13] | PET hydrolysis [3, 14] | PET hydrolysis [3, 15] | PET hydrolysis [3, 16] | PET hydrolysis [3, 17] | PET hydrolysis [3, 18] | PET hydrolysis [3, 19] |
| --- | --- | --- | --- | --- | --- | --- | --- | --- | --- | --- | --- | --- | --- | --- | --- | --- | --- | --- |
| AGNPYQRGPDPTLASVAASRGTFATAQVSVPPGNGFNGGTIYYPTDTTQGTWGAVAIVPGYTALFANEEAWMGPWLASFGFVVIGIETNSRNDFDTARGTQLLAALDYLTQKSPVRDRVDSARLGVIGHSMGGGGVVYATEHRPSLKAAVALAPFSPSQDMSTDHVPTMVMAGQNDTVVTPSYLDGLYATMPASAQSDFVQLAGADHVAYTHPNTTEMRLLIPWLKIFLDDDTRYTQFLCPLKDSTGVSMYRAKCPYVPPGGPTTSPTPTTTPTPPDGGACSATYRTVNSWSGGYQGEITVTAGGAAIDGWTVRWSLGGGQTVTQVWNGTLSTSGSTASVANASYNGSLQASASTTFGFLANGTPSTPALTCSSP [ESM084] | 43.9 | 119 | < 3 | 5 | < 3 | < 3 | < 3 | < 3 | < 3 | < 3 | – | – | – | – | – | – | – | – |
| AEAADNPYQRGPDPTLASVAATRGPFATAQATVPAGNGFNGGYVYYPTDTSLGTWGAVAIVPGYSALFADEEAWMGPWLASFGFVVLGIETNSRTDGADARATQLLAALDYLTQSSPVRHRVDANRLGVMGHSAGGAGTLMAALRRPSLKSAVGLAPGAPGNSLNMSTTQVPTMLISGQNDGTVTPSYVQGIYNTLPATVEHAWAELAGNDHLSFTRPNPTEMRILIPWLKIFLDNDTRYTQFLCPLADSTGVSRYSATCPLVPPGGPTAPPTVTPPPPTPTTPSPTTPPTSAACTATYRTVNSWSGGFQGEVTVTAGRAAINGWTVRWDLGNGQSISQVWNGTLSTSGSTATVRNVSYNGSLAPAASTGFGFLGTGAPAIPRLTCTSP [ESM037] | 73.3 | 358 | < 3 | < 3 | < 3 | < 3 | < 3 | < 3 | < 3 | < 3 | < 3 | < 3 | < 3 | < 3 | < 3 | < 3 | < 3 | < 3 |
| ADNPYQRGPDPTRSSVAAVNGPFANTSVAVPTGYGFNGGRIYYPTDTSQGTFGAIAISPGYTALFSVELAWMGPWLASHGFVVIGIETNSRNDFDTARGTQLLAALDYLTQQSPVRDRVDPNRLAVSGHSMGGGGALSAAIRRSSLKAVVGIAPYSPSSNLANDRVPTMVFAGQADTVVTPSYATGLYNSLPATTESAYLEVAGADHGFMVGRSNPVLIRTMLPFLKMFVDNDARYSQFLCPLADNSGVVSYRSTCPLLPTTPTTPPPTPSDTPPPTPSGTPTTPPTTGPPGTASLVVGAQSGRCLDVPNASRANGTRVQLWDCNRQANQQWTYTSTRQLRVYGDMCLDAAGSGNGAAVQIYGCHGQPNQQWTVNANGTISGVQSGRCLDVWSTANGAQVQLYDCHGQTNQRFTLTPVA [ESM080] | 61.6 | 56.6 | 9 | 18 | 9 | 4 | – | – | – | – | – | – | – | – | – | – | – | – |
| ASPYERGPDPTDSILEASRGPFATSQLSVSSLSVSGFGGGTVYYPTDTSQGTFGAIAISPGYTARWSSLAWLGPRIASHGFVVIGIETNTIYDQPASRGRQLLAALDYLTSSSPSTVRSRIDASRLAVAGHSMGGGGTLEAANDRPSLQAAVPLAPWNLTKIWSGVRVPTMIIGGEADTVAPVASHSEPFYQSIPSSVEKAYLELNNASHFFPQTTNTTMAKSMVAWLKRFVDDDTRYDQFLCPAPRGLAIQEYRDTCPIS [TEP144] | 46.6 | 32.6 | < 3 | < 3 | < 3 | < 3 | – | – | – | – | – | – | – | – | – | – | – | – |
| NPYERGPDPTTASIEASRGSFATSTVTVSRLAVSGFGGGTIYYPTTTTAGTFGAISIAPGFTATQSSMAWLGPRLASQGFVVFTIDTITTSDQPDSRGRQLLASLDYLTQQSSVRSRIDSSRLGVVGHSMGGGGTLEAARSRPSLQAAVPLTGWNLTKNWSTLRVPTLVVGAQSDTIAPVASHSIPFYTSLPSTLDRAYLELRGASHFAPNTSNTTIAKYTLSWLKRFIDNDTRYEQFLCPIPSSSLSISDYRGNCPHNG [ESM167] | 55.3 | 254 | 2 ± 2.8 | 12.5 ± 2.1 | 21 ± 4.2 | 35.5 ± 0.71 | < 3 | 10.5 ± 2.1 | 20 ± 1.4 | 26 ± 1.4 | < 3 | 4 | 6.5 ± 0.71 | 7.5 ± 0.71 | < 3 | < 3 | 2 ± 2.8 | 2.5 ± 3.5 |
